Measured values reported in the DeepSol protein solubility set.

test: soluble on expression in E. coli; label from the status in PepcDB or PDB records

Sequence	soluble on expression in E. coli
MTTEFNEIMKEINDSETIIIHRHVRPDPDAYGSQLGLKNYLKLKFPDKKIFAVGETEPSLDFIGTFDEISDDTYNEALVIVCDTANSPRISDERFNQGRLLVKIDHHPAVDQYGDINFVNDQASSTSEIIFDFISHFNDIPIIDASVARVLYLGIVGDTGRFLFNNTTSHTMGVAGQLLTFPFNHNEELNKMGEKDPKLLPFQGYVLQHFDLNEKGFCKVTITKEILEQFDIAANQASLFVNAIADIQGLKIWVFAVDEGTEIRCRIRSKGIVINDIASDFGGGGHPNASGVSVRDWAQFETLAEALNNKLLEHHHHHH	soluble
MRKTLIALMFAAALPTVAMAMPEGHGPMGPMDGPRHSEHMRGKGPFSQLDLSREQRQQIGKLMGEQMHDRKAVVEKYLEKLSPADQKAMKDELTAKHQKTQADIRALLKPEQQKEFDTIVKKQEERRAEWAEFKAWKAQQPQKAQLEHHHHHH	soluble
MGSDKIHHHHHHMGKLLAINISKERGTEKREVPQAELVADYGIMGDAHAGKWHRQVSLLSAEKIDAFRARGAQIDNGAFGENLIISGFDFKNLPLGTRFCIGDAILEMTQIGKQCHSHCAIYKRMGECIMPKEGVFAVVIRGGQIHTGDEVKLIPANIYASIKDRPADSRCELLTVTEGAHAGEKALYIDGRIRVASGSAWADEINDNDNSIVMFKQQIGSRPRLIICGGGHVSAALVRMASLLAFDIWVIEDRPLFADNAKRQGADHVICGDYKKTLARLEPQADDYYVCMTRGHRFDMECLTEIFRKPYAYVGMMGSKKRAAIVKKDLEESGFSRENISGLHSPIGLAIGGQTPEEIALSVISEIVKCKNERTGCTQVDNEVLDALIEASDEKYILCTIIKKNGSAPRGVGTQMLVSSDNRIIGTIGGGCAEAEVISQCRRLFRKQEFKCGLMDVSMNTDDAEKEGMVCGGSISVLLEQLG	not soluble
MPMKEFPGLFLWKMWSLDKKKENMLKTHDPGISRLEPVTKTKPWREPLWERNWQGQHLDSRGYLAGPGREDGRNPLKLFVRATLQESLQFHRPDFISHIWERIKRLKLIVQERKLQSMLKSERDALFDIDRERQGHQNRMRPLPKRVFLAVQKNKPISKKEMIQRSKRTHAGGTVAQRLPGALWVKERLPGKGEKHPGIPVTSGSSTQTM	not soluble
MYRKEWQDPDRIVDQLPISPGFDIVDLGCGPGFFTLPLASRTDGKVYAVDASDEMIEILKERIDGHSNIIPVKARAENIPIPDGTVDLVFIANAFHDFDDRDAVLGEIYRILRDGGYLVDIDWKKDETTHGPPVDIRIDRKDALLLISSHNFDIVKEIEAGAHHYGLLFRKN	not soluble
METALVSIIMPMYNAGKFLSKSIESVLEQTYQNWELLLIDDGSKDDSIDIALAFMEKDSRIFLLKNEQNMGIAKTRNKGIEASKGQYIAFLDSDDLWLPNKLEVQVKWMEEKKLLFTCSSYFVCNENGNITHERNFSEGPQTYQDLLKTNTIGCLTVVVESNLLKRHLMPDLKHEDYATWLNILKEINTVYFINEKLAIYRKLTTSTSSNKWNTISWVWKILRQNEQFSVIKSSFYLMRFLFYTTFKYAKNELEHHHHHH	soluble
MIRVASLIKAMSDTQLQIAQGASPLTGLPGNSAIEQEIKRRLNSGNAFGMIYADLNQFKAFNDTYGFQYGDSIIKLLGKILMQDSLKADDLAFVGHVGGDDFIILTTQNVTKTLGETILLSFQEQLSAMQGAQDLSLALAGLIIYPHTAWTPATLSERIAAVKREAKKAHCNYFLLRELEHHHHHH	not soluble
MGSDKIHHHHHHMNTRDLDYFRALVDCQNYTMVAKQFAVSQPAVTQAIHRLEKEFAVKLVIQDRRHQQTNITRAGQLLYKNARQIQASLQLAHREIQSTLQTDIRFGLPPIIGTLYFPQIAEKLLQNGLLQQLKITETGSDELLRKLVHGEINIALLGSYLPFDLPTVRAVHLGARPFSIIVSPQNSLAKQAAVSFKNLGQAQFIGLDGKYVHPQAFRAYCDFAGVHPEVIYRTPDISWVKALVKANLGISLLVRDVVKADDGVVCLEIKDQLPVSFNISVVTRAGYLPTTDEQRFIDQLLKMKI	not soluble
MILLLLLFILGSVSPDELISTRCQAQCLHLMDQRLQNNMELRKTLKHHIIQLCKEDATCSACSAPCREQFDDIKACKKSCVASDDRETCEDSCHYLQRIYQEKPGACPSVSNQSNYECSALCQMDGECPETQKCCSSGCSRQCLKPRSSDIKLLPIPRNISVQERKRKRSIIIRWATGRLSKAQQNENANLFLVQWRWGLHADESAMTEWQTVTVRNKPYAILKHLLSPGRFYEFRTAAVSQEGSLGFSSPSKPFKISKEAKAPPPPKDLSLGASKVVASGLWNQMVHWNPPPSDLPIKNYQISWASSTKSEADAFEEQMRKKSTLEFAAHEKRSLQSDDDEEFIGIQERDRQSVVVPSHATSSEITGLFPNSVYLVEIHASVDSSDGELHGEKGVVFIRTADSLSAVPEDREPYTGPKARIAHGSEELKIEASLKDLKTSSHAPNRPNSPQPAHLEIQTPFFDTELQTQLNWLNAAHCTPAKRQFSVKVRKTLCREYQPNHHSDTRWHDLRVTDCSALLKGLSFDCDYKVEVTDTLTGDFVVDGVFSTDTCDQTSSLTPIDCSSVTTPIQCQVTSESSAHCHWTRHHDAMQTVIGYRILLSSPINHDTNTTINQPQLREVRYENLAPGYVYTVEVQSITNKGLGRTVSTQFVTHPDLDSNAIQRFPGGEIIELPLESSGKLSIFSIFSSFFLVLLLRLL	not soluble
MPAPEAPTSTLPPERPLTNLQQQIQQLVSRQPNLTAGLYFFNLDSGASLNVGGDQVFPAASTIKFPILVAFFKAVDEGRVTLQERLTMRPDLIAPEAGTLQYQKPNSQYAALEVAELMITISDNTATNMIIDRLGGAAELNQQFQEWGLENTVINNPLPDMKGTNTTSPRDLATLMLKIGQGEILSPRSRDRLLDIMRRTVTNTLLPAGLGKGATIAHKTGDIGIVVGDAGMVDMPNGQRYVAAMMVKRPYNDPRGSELIRQVSRMVYQAFEKLSPPEQKLISEEDLNSAVDHHHHHH	soluble
PREFVLRPAPQGRTVRCRLTRDKKGMDRGMYPSYFLHLDTEKKVFLLAGRKRKRSKTANYLISIDPTNLSRGGENFIGKLRSNLLGNRFTVFDNGQNPQRGYSTNVASLRQELAAVIYETNVLGFRGPRRMTVIIPGMSAENERVPIRPRNASDGLLVRWQNKTLESLIELHNKPPVWNDDSGSYTLNFQGRVTQASVKNFQIVHADDPDYIVLQFGRVAEDAFTLDYRYPLCALQAFAIALSSFD	soluble
MSSLPETLMNRLHDHERLTQNEGEALYDLDLFTLGREADRRRVKKHGKKVFFNSNRHINPTNICQDICKFCAFSSHRKNPNPYAMSIDEILEIAKESTALGARELHVVSAHNPNYGYQWYGEMFKTIKEALPHIHLKAMTAAEVDFLSRRFEKPYEQVLEDMLLWGVDSMPGGGAEIFDEEVRARLCGGKVSSGRWLEIHGYWHSLGKQSNATMLFGHIENRTHRIDHMLRLRELQDRYGGFNAFIPLLYQKENNFLKVERFPTGQEILKTLAISRILLDNIPHIKAYWATLGLNLAMVAQEFGADDLDGTIQKESIQSAAGSGSGHGVSKEELIFQIKDAGFIPVERDSLYNEIQIYA	not soluble
MSISASEARQRLFPLIEQVNTDHQPVRITSRAGDAVLMSADDYDAWQETVYLLRSPENARRLMEAVARDKAGHSAFTKSVDELREMAGGEE	soluble
MGSDKIHHHHHHMIIGGLYMKFFEENYSQEIPTRIKNLRKKHNITQSELGNAGQVSQVESGKRPITSSMLVYLNALTASNYTYIVFGELDEFIENLFHYFFSSILYRDLEAVDENLYSFMSDDLISIQSSCLSIAKTFANFNIQRKRFMISTETEMDTFHKKDDIDVWVGGKSYNPARSFRNNPINELTVIDFEEMADILLLMLRDNLIRSFEINVCNTLFELDKNGEPTTFNLDKIDSIINKWWSENVSTEIIPNLIKKLRENPLFNIGFMVNDILERMYKEDIPKSYLTSVPLVISKKARSTLSIKSNGSQKIDKSKFAQILSL	not soluble
MTSDNKQEYTIHIFGQDITSQDGLFRLDEIRRVGIQIGKVEDNRSTEVARFMRTKAGRSLTNPENGFVKKINMGHLGTSWLADPVAAIEFGRWLDLGYGLAVTRAFVSMTSSATVQSAVASAEDIKPETKEFIQRHGTGLYIAGREVSQAEYSDYQAVTAGRCEWR	not soluble
